The record followed here is article PMC8584998, “Arabidopsis FHY3 and FAR1 Function in Age Gating of Leaf Senescence”.

For this series, the target named is T1, MBP-EIN3N (UniProt O24606 141-352).
T1 sequence: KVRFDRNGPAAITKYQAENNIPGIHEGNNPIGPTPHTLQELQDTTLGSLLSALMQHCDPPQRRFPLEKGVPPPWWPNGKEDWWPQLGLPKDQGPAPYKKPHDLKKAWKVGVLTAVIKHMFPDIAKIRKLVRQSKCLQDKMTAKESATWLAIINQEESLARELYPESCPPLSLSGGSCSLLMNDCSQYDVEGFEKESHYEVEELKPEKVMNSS
Description: EMSA; LightShift Chemiluminescent EMSA kit (Pierce), 10 min at room temperature, 6% native polyacrylamide gel; buffer, salt and pH not stated. Conditions: protein: recombinant; tags: MBP; chain copies: 2; label: biotin; blunt.

B1: ORE1 EBS (dsDNA)
DNA 1: ATACTTTACAAGGTTCATGCATGCATAC
DNA 2: GTATGCATGCATGAACCTTGTAAAGTAT
For the molecule B1, the binding result is “binds”.
